T1: biotinylated EpoR (Abbott CHO cell derived ref.#RB69084:4) (UniProt P19235 25-250, limits assumed, biotinylated with biotin-NHS (sites not given))
T1 construct: also called biotin EpoR; biotin-EpoR
T1 sequence (looked up): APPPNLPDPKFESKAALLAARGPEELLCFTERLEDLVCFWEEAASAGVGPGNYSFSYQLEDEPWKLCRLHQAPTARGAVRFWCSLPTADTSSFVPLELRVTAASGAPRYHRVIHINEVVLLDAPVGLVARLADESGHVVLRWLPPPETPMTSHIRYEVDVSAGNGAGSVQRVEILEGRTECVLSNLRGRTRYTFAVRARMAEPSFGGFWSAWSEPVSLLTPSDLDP

T2: soluble human EPO receptor (human, UniProt P19235 25-250, limits assumed)
T2 construct: Only called 'soluble'
T2 sequence (looked up): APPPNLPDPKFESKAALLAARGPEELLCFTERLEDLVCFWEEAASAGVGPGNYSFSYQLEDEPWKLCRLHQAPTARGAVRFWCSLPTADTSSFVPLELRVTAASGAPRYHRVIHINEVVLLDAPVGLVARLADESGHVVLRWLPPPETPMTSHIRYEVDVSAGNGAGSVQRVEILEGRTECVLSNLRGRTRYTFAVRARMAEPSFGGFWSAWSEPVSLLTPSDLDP


What was measured:
[1] = biological target: T1, biotinylated EpoR (Abbott CHO cell …); assay: ELISA, biotin-EpoR on streptavidin plate, HEK 293 supernatant titrated 1:2
Procedure: The ELISA for antigen specific antibody secretion was performed as follows. Control plates were coated with […] Goat anti-human IgG H+L O/N. For the binding plates, biotin-EpoR (0.7 mcg/mL) was coated onto streptavadin 96 well plates (Sigma, St Louis, Mo.) for one hour at room temperature. The plates were washed five times with dH₂O. Recombinant antibodies were titrated 1:2 for 7 wells from the undiluted minilipofection supernatant. The plates were washed five times with dH₂O. A goat anti-human IgG Fc-specific HRP-conjugated antibody was added at a final concentration of 1 ug/mL for 1 hour at RT for the secretion and the binding ELISA. The plates were washed five times with dH₂O. The plates were developed with the addition of TMB chromogenic substrate (KPL, Gaithersburg, Md.) for 30 minutes and the ELISA was stopped by the addition of 1 M phosphoric acid. Each ELISA plate was analyzed to determine the optical density of each well at 450 nm.

[2] = biological target: T2, soluble human EPO receptor; assay: SPR (Biacore 2000), antibody immobilised on the chip, soluble receptor 10-200 nM injected
Procedure: Immobilizations of antibody were performed using the default immobilization program in the Biacore software package. Antibodies were diluted to 10 ug/mL in the supplied acetate buffers to prescreen for the appropriate pH at which to conduct the immobilizations. For immobilizations, antibodies were diluted into the appropriate acetate buffer (10 mM acetate pH 4.0) and coupled directly to the chip surface using standard EDC chemistry at three different protein levels (500, 1000, and 1500 RU). The fourth flow cell was mock coupled with EDC to cap the carboxyl groups and provide a background surface as a negative control.
Binding studies were performed by successive injections of varying concentrations of soluble human EPO receptor over the chip surface (500 RU immobilized protein). […]
Data were fit to the models available in the BiaEvaluation 3.0.2 software package (Biacore). […] Dissociation constants were calculated directly from fitting to the Langmuir binding model. For the bivalent analyte model, the dissociation constants were calculated indirectly using the calculated values for the kinetic dissociation and kinetic association constants, kd and kₐ.

| Binding (dilution of the supernatant in ELISA) [1] | Kd [2] [µM] | Binder |
| --- | --- | --- |
| > 64 1:n dilution of supernatant |  | human anti-EPO-R antibody expressed by the cell line designated ABT2-SCX-060 (antibody, human IgG2, V domains shown, also called Ab60) VH: QVQLVESGGGVVQPGRSLRLSCAASGFTFSSYGMHWVRQAPGKGLEWVAVISYDGSNKYYADSVKGRFTISRDNSKNTLYLQMNSLRVEDTAVYYCARDHGGRYVYDYGMDVWGQGTTVTVSS VL: DIQMTQSPSSVSASVGDRVSITCRASQGISSWLAWYQQKPGKAPTLLIYAASSLQRGVPSRFSGSGSGTDFTLTISSLQPEDFATYFCQQANSFPFTFGPGTKVDIK |
| > 64 1:n dilution of supernatant |  | human anti-EPO-R antibody expressed by the cell line designated ABT2-SCX-102 (antibody, human IgG2, V domains shown, also called Ab102) VH: QVQLVESGGGVVQPGRSLRLSCAASGFTFSSYGMHWVRQAPGKGLEWVAVISYDGSNKYYADSVKGRFTISRDNSKNTLYLQMNSLRVEDTAVYYCARDHGGRYVYDYGMDVWGQGTTVTVSS VL: DIQMTQSPSSVSASVGDRVSITCRASQGISSWLAWYQQKPGKAPKRLIYAASSLQRGVPSRFSGSGSGTDFTLTISSLQPEDFATYFCQQANSFPFTFGPGTKVDIK |
| 4 1:n dilution of supernatant |  | human anti-EPO-R antibody expressed by the cell line designated ABT2-SCX-135 (antibody, human IgG2, V domains shown, also called Ab135) VH: QVQLVESGGGVVQPGRSLRLSCAASGFTFSSYGMHWVRQAPGKGLEWVAVISYDGSNKYYADSVKGRFTISRDNSKNTLYLQMNSLRVEDTAVYYCARDHGGRYVYDYGMDVWGQGTTVTVSS VL: DIQMTQSPSSVSTSVGDRVSITCRASQGIGSWLAWYQQKPGQAPTLLIYAASSLQRGVPSRFSGSGSGTDFTLTINSLQPEDFATYFCQQANSFPFTFGPGTKVDVK |
| > 64 1:n dilution of supernatant |  | human anti-EPO-R antibody expressed by the cell line designated ABT2-SCX-267 (antibody, human IgG2, V domains shown, also called Ab267) VH: QVQLVESGGGVVQPGRSLRLSCAASGFTFSSYGMHWVRQAPGKGLEWVAVISYDGSNKYYADSVKGRFTISRDNSKNTLYLQMNSLRVEDTAVYYCAKDHGGRYVYDYGMDVWGQGTTVTVSS VL: DIQMTQSPSSVSASVGDRVSITCRASQGIGSWLAWYQQKPGQAPTLLIYAASSLQRGVPSRFSGSGSGTDFTLTINSLQPEDFATYFCQQANSFPFTFGPGTKVDVK |
| > 64 1:n dilution of supernatant |  | human anti-EPO-R antibody expressed by the cell line designated ABT2-SCX-145 (antibody, human IgG2, V domains shown, also called Ab145) VH: QVQLVESGGGVVQPGRSLRLSCAASGFTFSSYGMHWVRQAPGKGLEWVAVISYDGSNKYYADSVKGRFTISRDNSKNTLYLQMNSLRVEDTAVYYCARDHGGRYVYDYGMDVWGQGTTVTVSS VL: DIQMTQSPSSVSASVGDRVSITCRASQGIGSWLAWYQQKPGQAPTLLIYAASSLQRGVPSRFSGSGSGTDFTLTINSLQPEDFATYFCQQANSFPFTFGPGTKVDVK |
| > 64 1:n dilution of supernatant | 0.0139 | Ab198 (human anti-EPO-R antibody expressed by the cell line designated ABT2-SCX-198) (antibody, human IgG2, V domains shown) VH: QVQLVESGGGVVQPGRSLRLSCVASGFTFSSYGMHWVRQAPGKGLEWVAVISYDGSNKYYADSVKGRFTISRDNSKNTLYLQMNSLRVEDTAVYYCARDHGGRYVYDYGMDVWGQGTTVTVSS VL: DIQMTQSPSSVSASIGDRVSITCRASQGISSWLAWYQQKPGKAPTLLIYAASTLQRGVPSRFSGSGSGTDFTLTISSLQPEDFATYFCQQANSFPFTFGPGTKVDIK |
| > 64 1:n dilution of supernatant |  | human anti-EPO-R antibody expressed by the cell line designated ABT2-SCX-022 (antibody, human IgG2, V domains shown, also called Ab22) VH: QVQLVESGGGVVQPGRSLRLSCAASGFTFSSYGMHWVRQAPGKGLEWVVVISYDGSNKYYADSVKGRFTISRDNSKNTLYLQMNSLRVEDTAVYYCARDHGGRYVYDYGMDVWGQGTTVTVSS VL: DIQMTQSPSSVSASVGDRVSITCRASQGISSWLAWYQQKPGKAPTLLIYAASSLQRGVPSRFSGSGSGTDFTLTISSLQPEDFATYFCQQANSFPFTFGPGTKVDIK |
| > 64 1:n dilution of supernatant |  | human anti-EPO-R antibody expressed by the cell line designated ABT2-SCX-003 (antibody, human IgG2, V domains shown, also called Ab3) VH: QVQLVESGGGVVQPGRSLRLSCAASGFTFSSYGMHWVRQAPGKGLEWVAVISYDGSNKYYADSVKGRFTISRDNSKNTLYLQMNSLRVEDTAVYYCARDHGGRYVYDYGMDVWGQGTTVTVSS VL: DIQMTQSPSSVSASVGDRVSITCRASQGISSWLVWYQQKPGKAPALLIYAASSLQRGVPSRFSGSGSGTDFTLTISSLQPEDFATYFCQQANSFPFTFGPGTKVDIK |
| 8 1:n dilution of supernatant |  | human anti-EPO-R antibody expressed by the cell line designated ABT2-SCX-254 (antibody, human IgG2, V domains shown, also called Ab254) VH: QVQLVESGGGVVQPGRSLRLSCAASGFTFSSYGMHWVRQAPGKGLEWVAVIWFDGNNKFYADSVKGRFTISRDNSKNTLYLQMNSLRVEDTAVYYCARGGSYWDYWGQGTLVTVSS VL: DIVMTQTPLFSFVMIGQPASISCRSRQSLVHSDGNTYLNWLQQRPGQPPRLLIYKTSNRFSGVPDRFSGSGAGTDFTLKISRVEAEDVGVYYCMQATQFPITFGQGTRLEIK |
| > 64 1:n dilution of supernatant |  | human anti-EPO-R antibody expressed by the cell line designated ABT2-SCX-054 (antibody, V domains shown, also called ABT2-SCX-54; Ab54) VH: QVQLVESGGGVVQPGRSLRLSCAASGFTFSKYGMHWVRQAPGKGLEWVAVLWYDGSNKYYADSVKGRFTISRDNSKNTLYLQMNSLRAEDTAVYYCARGPYYFDYWGQGTLVTVSS VL: not shown |
| > 64 1:n dilution of supernatant | 0.0175 | Ab12 (human anti-EPO-R antibody expressed by the cell line designated ABT2-SCX-012) (antibody, human IgG2, V domains shown, also called AB-ABT2-XG2-012; ABT2-XG2-012) VH: QVQLQESGPGLVKPSETLSLTCTVSGASISSYYWSWIRQPPGKGLEWIGYIYYSGSTNYNPSLKSRVTISVDTSKNQFSLKLRSVTAADTAVYYCARERLGIGDYWGQGTLVTVSS VL: DIQLTQSPSSLSASVGDRVTITCRASQGIRNDLGWYQQKPGKAPKRLIYAASSLQSGVPSRFSGSGSGTEFTLTISSLQPEDFATYYCLQHNTYPPTFGQGTKVEIK |

From patent US20040175379A1 (AbbVie / Abbott, published 2004)
